Consider six molecules from patent publication US9120865B2, “T cell epitopes of the Cyn d 1 allergen from bermuda grass pollen” (Circassia Limited, priority 2001, dated 2015).

Data set [1] concerns oligoclonal T cell blasts from Bermuda grass pollen-specific T cell lines. As to the kind of experiment: Oligoclonal T cell proliferation assay (3HTdR incorporation). The note with it: for number of patients in whom the peptide elicited proliferation: 13 Cyn d 1-reactive patients, SI≧2.5 considered significant. It counts as cell-based, human. The text has this: Bermuda grass pollen-specific T cell lines were isolated with the use of our well-established methods for thegeneration of allergen-specific T cell populations (O'Hehir, R. E., Young, D. B., Kay, A. B., Lamb, J. R., Immunology, 62:635-640, 1987; O'Hehir, R. E., Askonas, B. A., Lamb, J. R., Vol 3, Heidelberg:Springer-Verlag, p 120-138, 1993). Briefly, PBMC were separated from heparinized venous blood by density gradient centrifugation over Ficoll Paque (Pharmacia, Sweden). PBMC were initially stimulated for 1 week in 24-well plates (Costar, USA; 2.5×10^6 PBMC/well) with a previously determined optimal concentration of Bermuda grass pollen extract (50 μg/ml) for 7 days in complete medium (RPMI-1640 medium, Gibco Life Technologies, supplemented with 2 mmol/L L-glutamine, 100 IU/ml penicillin/streptomycin, and 5% screened, heat inactivated human AB^+ serum, Sigma Chemical Company, USA) at 37° C., 5% CO2. A two week line was established by restimulating the T cell blasts with Bermuda grass pollen extract in the presence of irradiated (3000 rads) autologous PBMC every 7 days, with the addition of interleukin-2 (5% vol/vol; Lymphocult-TLF, Biotest Folex, Frankfurt, Germany) every 3-4 days. In all experiments, T cells were rested for 7 days after the last addition of antigen and antigen presenting cells (APC) before use in proliferation assays. We have previously shown that CD4+ T cells are preferentially expanded in these cultures.
Oligoclonal T cell blasts (5×10^4/well) from the Bermuda grass pollen-specific T cell lines were stimulated in triplicate with Bermuda grass pollen extract (25, 50, 100 μg/ml), purified Cyn d 1 (2.5, 5, 10 μg/ml) and the Cyn d 1 peptides (1, 10 μg/ml) in the presence of an equal number of irradiated autologous PBMC as APC for 72 hours in 96-well round bottom plates (ICN Biomedicals, USA). Cultures of T cells and APC in the absence of antigen or with added IL-2 were included as negative and positive controls respectively. After 72 hours, cultures were pulsed with 1 μCi/well of tritiated methyl thymidine (^3HTdR; Amersham, USA) and harvested 16 hours later onto glass fibre filters. Proliferation as correlated with ^3HTdR incorporation was measured by liquid scintillation spectroscopy. Results are expressed as change in mean counters per minute above background (Acpm) or as a stimulation index (SI, cpm of antigen stimulated T cells divided by cpm of unstimulated T cells) to allow easier comparison between subjects with different background incorporation. Stimulation index values ≧2.5 are considered significant. Production of IL-5 and IFN-γ by Bermuda grass pollen-specific oligoclonal T cells

The subject of another data set is IL-5. Kind of data set: Production of IL-5 by Bermuda grass pollen-specific oligoclonal T cells (sandwich ELISA of culture supernatants). It counts as cell-based, human. The note with it: pre-SIT; supernatants at 48 hours. The protocol:
(§1) Production of IL-5 and IFN-γ by cultured oligoclonal T cells was assessed by harvesting supernatants from proliferation assays at 48 hours after stimulation, with replacement by an equal volume of complete medium, and measurement of cytokine levels by sandwich ELISA. White 96-well maxisorp ELISA plates (Nalgene NUNC, Denmark) were coated with rat anti-mouse/human IL-5 (PharMingen, USA) or mouse anti-human IFN-γ (endogen, USA) at 2 μg/ml and incubated overnight at 4° C. The plates were washed with 0.5% Tween 20/PBS and blocked with 1% BSA/PBS for 1 hour at room temperature. The plates were washed again and the culture supernatants from pooled triplicate assays added in duplicate to the wells. A standard curve was established using known concentrations of human recombinant IL-5 (PharMingen, USA) and IFN-γ (Endogen, USA). The plates were incubated with either 1 μg/ml biotinylated rat anti-human IL-5 (PharMingen, USA) or 0.5 μg/ml biotinylated mouse anti-human IFN-γ (Endogen, USA) for 1 hour at room temperature. After washing the plates, streptavidin-biotinylated horseradish peroxidase (Amersham, USA), at a dilution of 1:2000, was added to each well and incubated for 45 minutes at room temperature. […] The plates were read on a LumiCount microplate glow luminometer (Packard Instrument Company, USA). […]
(In general: An ELISA detects its analyte on a solid surface through an enzyme-linked reagent.)

A further data set concerns IFN-γ. Kind of data set: Production of IFN-γ by Bermuda grass pollen-specific oligoclonal T cells (sandwich ELISA of culture supernatants). The following applies: pre-SIT; supernatants at 48 hours. It counts as cell-based, human. On the procedure: as §1
The test system of data set [2] is oligoclonal house dust mite-reactive CD4+ T cells. As to the kind of experiment: Mitogenicity check with irradiated PBMC. In kind it is cell-based, human. The following applies: data not shown. The protocol: (§2) Antigens • (i) Bermuda grass pollen. • Bermuda grass pollen was purchased from Greer Laboratories Inc. (Lenoir, N.C., USA) as dry, non-defatted pollen. One gram of pollen was extracted in 5 ml of 1 mM NH4HCO3 overnight at 4° C. on a rotating wheel. After centrifugation, the supernatant was dialyzed against PBS overnight. The extract was filtered through a 0.2 μm filter. The protein content of the extract was determined using the Bio-Rad Microassay (Bio-Rad, USA). • (ii) Cyn d 1. • Cyn d 1 was generated by the Bermuda grass pollen extract first undergoing an 80% ammonium sulphate precipitation. […] The protein content was determined using the Bio-Rad Microas say. • (iii) Peptides. • Synthetic peptides (20-mers overlapping by 11 or, for the two N-terminal peptides, 15 residues) spanning the entire length of the Cyn d 1 molecule were purchased from Mimotopes (Clayton, Australia; FIG. 2) (CD1 isoform, Smith et al., 1996, supra). • (iv) Mitogenicity and Toxicity. • Mitogenicity of Bermuda grass pollen, Cyn d 1 and Cyn d 1 peptides was excluded by culturing with oligoclonal house dust mite-reactive CD4^+ T cells in the presence of irradiated peripheral blood mononuclear cells (PBMC), and toxicity was excluded by co-culture of antigens with the HDM-reactive T cells in the presence of IL-2 (data not shown).

The subject of another data set is HDM-reactive T cells. Kind of data set: Toxicity check by co-culture of antigens in the presence of IL-2. It counts as cell-based, human. The following applies: data not shown. On the procedure: as §2
A further data set concerns IgE. The following applies: sera from Bermuda grass pollen-allergic patients; cited from earlier work.

Turning to “EGGAHLVQDDVIPANWKPDT (human) [Cyn d 1(217-236), synthetic 20-mer peptide of Cyn d 1, residues 217-236]”, the “number of patients in whom the peptide elicited proliferation” value (shortened to “number of patients”) in data set [1] (pre-immunotherapy) was 8 patients.

For “LVQDDVIPANWKPDTVYTSK (human) [Cyn d 1(222-241), synthetic 20-mer peptide of Cyn d 1, residues 222-241]”, the “number of patients” value in data set [1] (pre-immunotherapy) was 6 patients.

Take “MKSSWGAIWRIDPKKPLKGP (human) [Cyn d 1(190-209), synthetic 20-mer peptide of Cyn d 1, residues 190-209]”: the “number of patients” value in data set [1] (pre-immunotherapy) is 6 patients.

Turning to “PKDSDEFIPMKSSWGAIWRI (human) [Cyn d 1(181-200), synthetic 20-mer peptide of Cyn d 1, residues 181-200]”, the “number of patients” value in data set [1] (pre-immunotherapy) was determined as 6 patients.

Regarding “SGKAFGAMAKKGQEDKLRKA (human) [Cyn d 1(109-128), synthetic 20-mer peptide of Cyn d 1, residues 109-128]”, the “number of patients” value in data set [1] (pre-immunotherapy) worked out at 8 patients.

B1: Cyn d 1: major allergen protein of Bermuda grass pollen, purified from the pollen extract by ammonium sulphate precipitation and G-75 Sephadex (protein)
chain: AIGDKPGPNITATYGNKWLEAKATFYGSNPRGAAPDDHGGACGYKDVDKPPFDGMTACGNEPIFKDGLGCGACYEIKCKEPVECSGEPVLVKITDKNYEHIAAYHFDLSGKAFGAMAKKGQEDKLRKAGELTLQFRRVKCKYPSGTKITFHIEKGSNDHYLALLVKYAAGDGNIVAVDIKPKDSDEFIPMKSSWGAIWRIDPKKPLKGPFSIRLTSEGGAHLVQDDVIPANWKPDTVYTSKLQFGA
modifications: human
notes: major allergen protein of Bermuda grass pollen, purified from the pollen extract by ammonium sulphate precipitation and G-75 Sephadex
Take B1: in data set [1] (following SIT), the “change in proliferative responses / recognition” value is “marked decrease”. Besides, in data set [1] (following one year of SIT), the “patients with decreased proliferation” value is listed as 11/13. Moreover, the “patients whose Bermuda grass pollen-specific T cell lines showed proliferative T cell responses” value in data set [1] (pre-immunotherapy, 2-week T cell lines from 14 patients) is 13/14. The “IL-5 secreted in response to stimulation” value in the data set with IL-5 was “High levels”. The “IFN-γ secreted in response to stimulation” value with IFN-γ is “High levels”. In addition, the Mitogenicity result in data set [2] is given as “excluded”. Moreover, in the data set with HDM-reactive T cells, the toxicity entry is recorded as “excluded”. The predominant humoral recognition with IgE is listed as over 76%.
